According to the RNAGym collection of RNA variant scans (doi:10.7554/elife.90254):

B1: OR4K15 (parent)
chain: GUUAACGGUCAUAGGCCAUGGAAACUAGGAGCACCAUUUCGCUGCCAGUGAAGAAAUGAACAAAGAAAAUCUGGGCCAGGCAGGCAUCAAAAGAAAUAGUCUUGCGCUCAACCAGAAAGUCUGUAAUCAUUUUAAGGGUA

Variants of: B1
Test: self-cleavage, relative activity (ratio to wild type); higher = more cleavage; in vitro, sequencing; the parent is a self-cleaving ribozyme

Point of comparison: GUUAACGGUCAUAGGCCAUGGAAACUAGGAGCACCAUUUCGCUGCCAGUGAAGGAAUGAGCAAAGAAAAUCUGGGCCAGGCAGGCAUCAAAAGAAAUAGUCUUGCGCUCAACCAGAAAGUCUGUAAUCAUUUUAAGGGUA [A54G A60G], self-cleavage 1.02. Against it:
- GUUAACGGUCAUAGGCCAUGGAAACUAGGAGUACCAUUUCGCUGCCAGUGAAGAAAUGAACAAAGAAAAUCUGGGCCAGGCAGGCAUCAAAAGAAAUAGUCUUGCGCUCAACCAGAAAGUCUGUAAUCACUUUAAGGGUA [C32U U130C] — higher, 1.26
- GUUAACGGUCAUAGGCCAUGGAAACUAGGAGCACCAUUUCGCUGCCAGUGAAGAAAUGAACAAAGAAGAUCUGGGCCAGGCAGGCAUCAAAAGAAAUAGUCUUGCGCUCAACCAGAAAGUCUGUAAUCGUUUUAAGGGUA [A68G A129G] — higher, 1.05
- GUUAACGGUCAUAGGCCAUGGAAACUAGGAGCACCAUUUCGCUGCCAGUGAAGAAAUGAACAAAGAAAAUCUGGGCCAGGCAGGCAUCAAAAGAAAUUGUCUUGCGCUCAGCCAGAAAGUCUGUAAUCAUUUUAAGGGUA [A98U A111G] — lower, 0.01
- GUUAACGGUCAUAGGCCAUGGAAUCUAGGAGCACCAUUUCGCUGCCAGUGAAGAAAUGAACAAAGAAAAUCUGGGCCAGGCAGGCAUCAAAAGAAGUAGUCUUGCGCUCAACCAGAAAGUCUGUAAUCAUUUUAAGGGUA [A24U A96G] — lower, 0.87
- GUUAACGGUCAUAGGCCAUGGAAACUAGGAGCACCAUUUCGCUGCCAGUGAAGAAAUGAACAAAGAAAAUCUGGGCCAGGCAGGCAUCAGAAGAAAUAGUCUUGCGCUCAACCAGAAAGUCUGUAAUCGUUUUAAGGGUA [A90G A129G] — lower, 0.22
- GUUAACGGUCAUAGGCCAUGGAAACUAGGAGCACCAUUUCGCUGCCAGAGAAGAAAUGAACAAAGAAAAUCUGGGCCAGGCAGGCAUCAAAAGAAAUAGCCUUGCGCUCAACCAGAAAGUCUGUAAUCAUUUUAAGGGUA [U49A U100C] — higher, 2.15
- GUUAACGGUCAUAGGCCAUGGAAACUAGGAGCAGCAUUUCGCUGCCAGUGAAGAAAUGAACAAAGAAAAUCUGGGCCAGGCAGGCAUCAAAAGAAAUAGUCUUGCGCUCAACCAGAAAGUCUGUAAUCAUUCUAAGGGUA [C34G U132C] — higher, 2.44
- GUUAACGGUCAUAGGCCAUGGAAACUAGGAGCACCAUUUCGCUGCCUGUAAAGAAAUGAACAAAGAAAAUCUGGGCCAGGCAGGCAUCAAAAGAAAUAGUCUUGCGCUCAACCAGAAAGUCUGUAAUCAUUUUAAGGGUA [A47U G50A] — lower, 0.26
- GUUAAAGGCCAUAGGCCAUGGAAACUAGGAGCACCAUUUCGCUGCCAGUGAAGAAAUGAACAAAGAAAAUCUGGGCCAGGCAGGCAUCAAAAGAAAUAGUCUUGCGCUCAACCAGAAAGUCUGUAAUCAUUUUAAGGGUA [C6A U9C] — higher, 1.47
- GUUAACGGUCAUAGGCCAUGGAAACUAGGAGCACCACUUCGCUGCCAGUGAAGAAAUGAACAAAGAAAAUCUGGGCCAGGCAGGCAUCAAAAGAAAUAGUCUUGCGCUAAACCAGAAAGUCUGUAAUCAUUUUAAGGGUA [U37C C109A] — lower, 0.34
- GUUAACGGUCAUAGGCCAUGGAAACUAGGAGCACCAUUUCGCUGCCAGUGAAGAUAUGAACAAAGAAAAUCUGGGCCAGGCAGGCAUCAAGAGAAAUAGUCUUGCGCUCAACCAGAAAGUCUGUAAUCAUUUUAAGGGUA [A55U A91G] — higher, 1.73
- GUUAACGGUCAUAGGCCAUGGAAACUAGGAGCACCAUUUCGCUGCCAGUGAAGAAAUGAACAAAGAAAAUCUGGGCCAGGCAGGCAUCUAAAGAAAUAGUCUUGCGCUCAACCAUAAAGUCUGUAAUCAUUUUAAGGGUA [A89U G115U] — lower, 0.56
- GUUAACGGUCAUAGGCCAUGGAAACUAGGAGCACCAUUUCGCUGCCAGUGAAGAAAUGAACAGAGAAAAUCUGGGCCAGGCAGGCAUCAAAAGAAAUAGUCUUGCGCUCAACCAGAAAGUCUGUAAUCACUUUAAGGGUA [A63G U130C] — higher, 1.13
- GUUAACGGUCAUAGGCCAUGGAAACUAGGAGCACCAUUUCGCUGCCGGUGAAGAAAUGAACAAAGAAAAUCUGGGCCAGGCAGGCAUCAGAAGAAAUAGUCUUGCGCUCAACCAGAAAGUCUGUAAUCAUUUUAAGGGUA [A47G A90G] — lower, 0.56
- GUUAACGGCCAUAGGCCAUGGAAACUAGGAGCACCAUUUCGCUGCCAGUGAAGAAAUGAACAAAGAAAAUCUGGGCCAGGCAGGCAUCAAAAGAAAUAGUCUUGCGCUCAACCUGAAAGUCUGUAAUCAUUUUAAGGGUA [U9C A114U] — lower, 0.1
- GUUAACGGUCAUAGGCCAUGGAAACUAGGAGCACCAUUUCGCGGCCAGUGAAGAAAUGAACAAAGAAAAUCUGGGCCAGGCAGGCAUCAAAAGAAAUAGUCUUGCGCUCAACCAGAAAGUCUGUAGUCAUUUUAAGGGUA [U43G A126G] — lower, 0.92
- GUUAACGGUCAUAGGCCAUGGAAACUAGGAGCACCAUUUCGCUGCCAGUGAAGAAAUGAACAAAGAAAAUCCGGGCCAGGCAGGCAUCAAAAGAAAUAGUCUUGCGCUCAACCAGAUAGUCUGUAAUCAUUUUAAGGGUA [U72C A117U] — lower, 0.15
- GUUAACGGUCAUAGGCCAUGGAAACUAGGAGCACCAUUUCGCUGCCAGUGAAGAAAUGAACAAAGAAAAUCUAGGCCAGGCAGGCAUCAAAAGAAAUAGUCUUGCGCUCAGCCAGAAAGUCUGUAAUCAUUUUAAGGGUA [G73A A111G] — lower, 0.02
- GUUAACGGUCAUAGGCCAUGGAAACUAGGAGCACCAUUUCGCUGCCAGUGAAGAAAUAAACAAAGAAAAUCUGGGCCAGGCAGGCAUCAAAAGAAAUAGUCUUGCGCUCAACCAGAAAGUCUGUAAUCAUUUCAAGGGUA [G58A U133C] — higher, 1.94
- GUUAACGGUCAUAGGCCAUGGAAACUAGGAGCACCAUUUCGCUGCCAGUGAGGAAAUGAACAAAGAAAAUCUGGGGCAGGCAGGCAUCAAAAGAAAUAGUCUUGCGCUCAACCAGAAAGUCUGUAAUCAUUUUAAGGGUA [A52G C76G] — lower, 0.03
- GUUAACGGUCAUAGGCCAUGGAAACUAGGAGCACCAUUUCGCCGCCAGUGAAGAAAUGAACAAAGAAAAUCUGGGCCGGGCAGGCAUCAAAAGAAAUAGUCUUGCGCUCAACCAGAAAGUCUGUAAUCAUUUUAAGGGUA [U43C A78G] — lower, 0.26
- GUUAACGGUCAUAGGCCAUGGAAACUAGGAGCACCAUUUCGCUGCCAGUGAAGAAAUGAACAAAGAAAAUCUGGGCCAGGCAGGCAUCAAAAGAAAUAGUCUUGCGCUCAACCAGUAAGUCUGUAAGCAUUUUAAGGGUA [A116U U127G] — lower, 0.11
- GUUAACGGUCAUAGGCCAUGGAAACUAGGAGCACCAUUUCGCUGCCAGUGAAGAAAUGAACAAAGAAAAUCUGCGCCAGGCAGGCAUCAAAAGAAAUAGUCUUGCGCUCAACCAGAAAGUCUGUAAUCAUUUUAAGGGCA [G74C U139C] — lower, 0.15
- GUUAAAGGUCAUAGGCCAUGGAAACUAGGAGCACCAUUUCGCUGCCAGUGAAGAAAUGAACAAAGAAAAUCUGGGCCAGGCAGGCAUCAAAAGAAAUAGUCUUGCGCUCAACCAGGAAGUCUGUAAUCAUUUUAAGGGUA [C6A A116G] — lower, 0.77
- GUUAACGGUCAUAGGCCAUGGAAACUAGGAGCACCAUUUCGCUGCAAGUGAAGAAGUGAACAAAGAAAAUCUGGGCCAGGCAGGCAUCAAAAGAAAUAGUCUUGCGCUCAACCAGAAAGUCUGUAAUCAUUUUAAGGGUA [C46A A56G] — higher, 1.81
- GUUAACGGUCAUAGGCCAUGGAAACUAGGAGCACCAUUUCGCUGCCAGUGAAGAAAUGAAUAAAGAAAAUCUGGGCCAGGCAGGCAUCAAAAGAAAUAGUCUUGCUCUCAACCAGAAAGUCUGUAAUCAUUUUAAGGGUA [C61U G106U] — lower, 0.04
- GUUAACGGUCAUAGGCCAUGGAAACUAGGAGCACCAUUUCGCUGCCAGUGAAGAAAUGGACAAAGAAAAUUUGGGCCAGGCAGGCAUCAAAAGAAAUAGUCUUGCGCUCAACCAGAAAGUCUGUAAUCAUUUUAAGGGUA [A59G C71U] — lower, 0.22
- GUUAACGGUCAUAGGCCAUGGAAACUAGGAGCACCAUUUCGCUGCCAGUGAAGAAAUGAACGAAGAAAAUCUGGGCCAGGCAGGCAUCAAAAGAAAUAGUCUUGCGCUCAACCAGAAAGUCUGUAAUUAUUUUAAGGGUA [A62G C128U] — higher, 1.13
- GUUAACGGUCAUAGGCCAUGGAAACUAGGAGCACCAUUUCGCUGCCAGUGAAGAGAUGAACAAAGUAAAUCUGGGCCAGGCAGGCAUCAAAAGAAAUAGUCUUGCGCUCAACCAGAAAGUCUGUAAUCAUUUUAAGGGUA [A55G A66U] — lower, 0.64
- GUUAACGGUCAUAGGCCAUGGAAACUAGGAGCACCAUUUCGCUGCCAGUGAAGAAAUGAACAAAGAAAAUCUGGGCCAGGCAGGCAUCAAAAGAAAUAGUCUGGCGCUCAACCAGAAAGUCUGUAAUCAUUUUAAGGGUA [U103G] — lower, 0.03
- GUUAACGGUCAUAGGCCAUGGAAACUAGGAGCACCAUUUCGCUGCCAGCGAAGAAAUGAACAAAGAAAAUCUGGGCCAGGCAGGCAUCAAAAGAAAUAGACUUGCGCUCAACCAGAAAGUCUGUAAUCAUUUUAAGGGUA [U49C U100A] — lower, 0.63
- GUUAACGGUCAUAGGCCAUGGAAACUAGGAGCACCAUUUCGCCGCCAGUGAAGAAAUGAACAAAGAAAAUCUGGGCCAGGCAGGCAUCAAAAGAAGUAGUCUUGCGCUCAACCAGAAAGUCUGUAAUCAUUUUAAGGGUA [U43C A96G] — higher, 1.09
- GUAAACGGUCAUAGGCCAUGGAAACUAGGAGCACCAUUUCGCUGCCAGUGAAGAAAUGAACAAAGAAAAUCUGGGCCAGGCAGGCAUCAAAAGAAAUAGUCUUGCGCUCAGCCAGAAAGUCUGUAAUCAUUUUAAGGGUA [U3A A111G] — lower, 0.08
- GUUAACGGCCAUAGGCCAUGGAAACUAGGAGCACCAUUUCGCUGCCAGUGAAGAAAUGAACAAAGAAAAUCUGGGCCAGGCAGGUAUCAAAAGAAAUAGUCUUGCGCUCAACCAGAAAGUCUGUAAUCAUUUUAAGGGUA [U9C C85U] — higher, 1.44
- GUUAACGGUCAUAGGCCAUGGAAACUAGGAGCACCAUUUCGCUGCCAGUGAAGAAAUGAACUAAGAAAAUCUGGGCCAGGCAGGCAUCAAAAGAAAUAGUCUUGCGCUCAACCAGAAAGUCUGUAAUCAUUUUAAGGGCA [A62U U139C] — higher, 1.82
- GUUAACGGUCAUAGGCCAUGGAAACUAGGAGCACCAUUUCGCUGCCAGUGAAGAAAUGAACAAAGAAAAUCUGGGCCAGGCAGGCAUCAAAAGAAAUAGUCUUGCGCUCAGCCAGAAAGUCUGUAAUAAUUUUAAGGGUA [A111G C128A] — lower, 0.01
- GUUAACGGUCAUAGGCCAUGGAAACUAGGAGCACCAUUUCGCUGCCAGUGAAGAAAUGAACAAAGACAAUCUGGGCCAGGCAGGCAUCAAAAGAAAUAGUCUUGCGCUCAACCAGAAAGUCUGUAGUCAUUUUAAGGGUA [A67C A126G] — higher, 2.11
- GUUAACGGUCAUAGGCCAUGGAAACUAGGAGCACCAUUUCGCUGCCAGUGACGAAAUGAACAAAGAAAAUCUGGGCCAGGCAGGCAUCAAAAGAGAUAGUCUUGCGCUCAACCAGAAAGUCUGUAAUCAUUUUAAGGGUA [A52C A95G] — higher, 1.94
- GUUAACGGUCAUAGGCCAUGGAAACUAGGAGCACCAUUUCGCUGCCAGUGAAGAAAUGAACAAAGAAAAUCUGGGCCAGGCAGGCAUCAAAAGAAAUAGUCUUGCGCUCAACCUGAAAGUCUGUAAUCAUUUUAAGGGUG [A114U A140G] — lower, 0.08
- GUUAAUGGUCAUAGGCCAUGGAAACUAGGAGCACCAUUUCGCUGCCAGUGAAGAAAUGAACAAAGAAAAUCUGGGCCAGGCAGGCAUCAAAAGAAAUAGUCUUGCGCUCAACCAGAAAGUCUGUAAUCAGUUUAAGGGUA [C6U U130G] — lower, 0.44
